Results as given in PMC4830213, “Signaling mechanism by the Staphylococcus aureus two-component system LytSR: role of acetyl phosphate in bypassing the cell membrane electrical potential sensor LytS” (F1000Research, 2016).

Target: phosphorylated receiver domain of LytR (LytR^N-P) (Staphylococcus aureus strain Mu50) (UniProt P60609)
Assay: native gel or EMSA; LytR^N and LytR^N-P (phosphorylated by acetyl phosphate) at 10, 20 and 40 µM on native-PAGE (10% in the methods, 15% in the legend), buffer kept at 4°C, Coomassie stain

stoichiometry N: 2
Substance: phosphorylated receiver domain of LytR (LytR^N-P) (from UniProt P60609 1-134) (domain or fragment)
